{"source": "patent US10617652B2", "about": "“Polymers and polymeric nanogels with hydrophilics encapsulation and release capabilities and methods thereof” (University of Massachusetts, priority 2014, dated 2020)", "molecular_target": "T1, acid α-glucosidase (GAA) (Homo sapiens, UniProt P10253)", "T1 construct": "purchased Genzyme, Inc. (Myozyme)", "assay": "GAA activity assay with para-nitrophenol-α-D-glucopyranoside substrate", "type": "biochemical", "method": "The activity of the encapsulated GAA, relative to the free GAA, was evaluated. It was envisioned that the enzyme would be less available to the substrate, when encapsulated, and therefore would have a lower activity. It follows then that the activity will be recovered when exposing the nanogel to lower pH, as the enzyme will be released in response to the β-thioester cleavage based decrosslinking. The enzymatic activity was measured using para-nitrophenol-α-D-glucopyranoside as substrate, the GAA-assisted cleavage of the α-1,4-linkage of which releases the chromophore p-nitrophenolate (pNP). […] Note, however, that the enzymatic activity of GAA itself at pH 7.4 is undetectable (FIG. 4a).\nTo activate the GAA from the nanogel, the pH of the solution was reduced to 5.0 using acetate buffer. […] To calibrate the percentage of activity that was recovered after 48 hours of incubation at pH 5.0, the enzymatic activity of the GAA from the nanogel was compared with that of the free enzyme at the same concentration. […]\nGAA activity was measured using para-nitrophenol-α-D-glucopyranoside as a substrate in 100 mM Citrate/100 mM Sodium Phosphate buffer at pH 5.0. […] Presence of the product formation (para-nitrophenolate) was then measured by absorbance of 400 nm light on a Molecular Devices Spectra Max M5 at 25° C. […]", "data": [{"substance": "acid α-glucosidase [GAA]", "values": [{"measurement": "enzymatic activity at pH 7.4", "value": "undetectable"}]}]}
